Residue numbers refer to the chain shown, from its start. In names and notes the source's numbering stands. Where two headings read alike, the source gives them in different places.

Assay [1] concerns the target T1, CD16 F158 (FcγRIIIA) on Jurkat reporter cells (human, UniProt P08637 17-254). In words: cell-based or functional assay.
The target in assay [2] is T2, CD16 V158 (FcγRIIIA) on Jurkat reporter cells (human, UniProt P08637 17-254). In words: cell-based or functional assay.
In assay [3] the target is T1, CD16 F158 (FcγRIIIA) on Jurkat reporter …. In words: cell-based or functional assay. This is another data set of the same source.
Assay [4] concerns the target T2, CD16 V158 (FcγRIIIA) on Jurkat reporter …. In words: cell-based or functional assay. This is another data set of the same source.
Assay [5] has as its target full length human CD163 on cells (human, UniProt Q86VB7 42-1156). In words: cell-based or functional assay.
The target in assay [6] is T3, human CD163 domain 1-9, recombinant, immobilized on a CM5 sensor chip (human, UniProt Q86VB7 42-1050, limits assumed).
T3 construct: the whole entry is named; also called immobilized CD163
In words: SPR (Biacore T200), human CD163 domain 1-9 immobilised on CM5 chip, antibody injected, 1:1 kinetic fit. (In SPR one partner is held on a chip, and binding of the other changes the refractive index at the surface.)

The target in assay [7] is T3, human CD163 domain 1-9, recombinant, …. Described as above. The source holds these as a separate data set.

T2 sequence (P08637 17-254 F176V): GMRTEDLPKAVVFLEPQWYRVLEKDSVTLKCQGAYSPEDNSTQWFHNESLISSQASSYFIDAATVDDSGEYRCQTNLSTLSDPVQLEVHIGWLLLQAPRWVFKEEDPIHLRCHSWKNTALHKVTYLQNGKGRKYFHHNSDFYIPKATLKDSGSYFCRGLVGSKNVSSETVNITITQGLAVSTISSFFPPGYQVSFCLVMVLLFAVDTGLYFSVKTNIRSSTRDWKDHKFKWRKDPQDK
T1 sequence (P08637 17-254): as the sequence (P08637 17-254 F176V) above, with V160F counted along it
T3 sequence (Q86VB7 42-1050 limits assumed): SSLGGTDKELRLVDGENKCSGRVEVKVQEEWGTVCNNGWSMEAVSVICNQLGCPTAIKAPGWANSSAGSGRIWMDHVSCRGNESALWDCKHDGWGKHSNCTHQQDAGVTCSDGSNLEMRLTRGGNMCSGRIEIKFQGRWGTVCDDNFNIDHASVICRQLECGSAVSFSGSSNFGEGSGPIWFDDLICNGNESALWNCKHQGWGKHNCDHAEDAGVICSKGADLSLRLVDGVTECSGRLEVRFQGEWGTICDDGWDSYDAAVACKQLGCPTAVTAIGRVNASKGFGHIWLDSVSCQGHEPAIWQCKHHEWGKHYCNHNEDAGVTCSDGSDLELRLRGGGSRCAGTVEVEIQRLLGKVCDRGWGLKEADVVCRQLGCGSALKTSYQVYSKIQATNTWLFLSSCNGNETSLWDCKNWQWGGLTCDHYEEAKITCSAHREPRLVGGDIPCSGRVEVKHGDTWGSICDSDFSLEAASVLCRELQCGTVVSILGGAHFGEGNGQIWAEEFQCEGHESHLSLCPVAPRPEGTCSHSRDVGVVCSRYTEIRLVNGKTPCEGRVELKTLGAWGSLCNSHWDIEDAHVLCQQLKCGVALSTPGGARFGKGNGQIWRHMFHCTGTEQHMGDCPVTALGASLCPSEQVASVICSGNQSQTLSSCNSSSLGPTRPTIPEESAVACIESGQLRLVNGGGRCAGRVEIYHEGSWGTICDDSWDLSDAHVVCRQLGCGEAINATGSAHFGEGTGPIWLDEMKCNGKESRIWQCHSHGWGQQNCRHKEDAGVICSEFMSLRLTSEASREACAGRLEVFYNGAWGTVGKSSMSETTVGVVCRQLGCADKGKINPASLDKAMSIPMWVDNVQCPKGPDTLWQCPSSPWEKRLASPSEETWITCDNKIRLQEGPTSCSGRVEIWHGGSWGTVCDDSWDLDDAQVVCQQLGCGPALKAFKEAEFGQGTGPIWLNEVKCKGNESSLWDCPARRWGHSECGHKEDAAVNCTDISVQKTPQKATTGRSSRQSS
Chain of full length human CD163 on cells (Q86VB7 42-1156 limits assumed): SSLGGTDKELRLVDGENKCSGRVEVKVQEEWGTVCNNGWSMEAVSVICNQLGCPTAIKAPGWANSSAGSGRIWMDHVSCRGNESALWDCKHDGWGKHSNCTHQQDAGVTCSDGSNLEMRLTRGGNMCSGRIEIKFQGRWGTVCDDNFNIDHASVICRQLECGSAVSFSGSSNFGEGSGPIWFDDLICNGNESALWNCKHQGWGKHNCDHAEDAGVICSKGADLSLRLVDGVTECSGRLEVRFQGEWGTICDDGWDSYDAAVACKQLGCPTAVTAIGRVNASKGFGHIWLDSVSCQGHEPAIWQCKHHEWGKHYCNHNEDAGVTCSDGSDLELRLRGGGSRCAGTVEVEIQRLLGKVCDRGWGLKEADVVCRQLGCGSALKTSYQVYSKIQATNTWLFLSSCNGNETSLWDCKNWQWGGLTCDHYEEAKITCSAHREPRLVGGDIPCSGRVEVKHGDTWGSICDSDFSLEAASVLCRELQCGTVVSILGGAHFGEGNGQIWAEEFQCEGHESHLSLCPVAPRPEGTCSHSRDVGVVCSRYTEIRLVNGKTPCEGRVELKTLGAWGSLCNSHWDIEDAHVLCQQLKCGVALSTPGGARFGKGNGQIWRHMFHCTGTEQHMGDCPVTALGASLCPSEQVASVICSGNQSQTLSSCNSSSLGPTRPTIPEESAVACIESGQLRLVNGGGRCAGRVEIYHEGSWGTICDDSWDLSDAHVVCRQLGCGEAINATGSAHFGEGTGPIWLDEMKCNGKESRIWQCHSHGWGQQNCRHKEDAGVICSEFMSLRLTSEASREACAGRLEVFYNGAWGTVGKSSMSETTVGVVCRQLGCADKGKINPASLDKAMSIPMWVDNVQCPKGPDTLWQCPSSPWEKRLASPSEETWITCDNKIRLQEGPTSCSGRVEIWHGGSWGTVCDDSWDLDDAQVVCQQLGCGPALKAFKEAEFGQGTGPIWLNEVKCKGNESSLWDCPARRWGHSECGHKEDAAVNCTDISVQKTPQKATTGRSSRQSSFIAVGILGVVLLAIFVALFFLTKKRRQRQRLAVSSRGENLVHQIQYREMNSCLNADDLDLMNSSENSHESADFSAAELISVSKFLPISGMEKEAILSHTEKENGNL

B1: OS000 (antibody)
heavy: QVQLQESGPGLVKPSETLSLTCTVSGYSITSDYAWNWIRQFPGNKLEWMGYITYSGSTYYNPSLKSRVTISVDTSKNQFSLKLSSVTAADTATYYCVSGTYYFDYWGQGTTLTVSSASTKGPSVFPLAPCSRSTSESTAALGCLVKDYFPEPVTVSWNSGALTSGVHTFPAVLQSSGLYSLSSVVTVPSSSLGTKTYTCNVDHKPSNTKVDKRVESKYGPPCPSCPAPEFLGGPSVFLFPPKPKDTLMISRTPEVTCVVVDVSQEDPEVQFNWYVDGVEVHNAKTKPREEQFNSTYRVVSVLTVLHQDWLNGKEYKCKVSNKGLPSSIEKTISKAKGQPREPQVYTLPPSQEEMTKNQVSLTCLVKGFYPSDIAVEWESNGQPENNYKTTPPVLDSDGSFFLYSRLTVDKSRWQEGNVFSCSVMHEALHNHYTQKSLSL
light: DIVMTQSPSSLSASVGDRVTITCRASQSVSSDVAWFQQKPGKSPKPLIYYASNRYSGVPSRFSGSGSGTDFTLTISSLQAEDFAVYFCGQDYTSPRTFGGGTKLEIKRTVAAPSVFIFPPSDEQLKSGTASVVCLLNNFYPREAKVQWKVDNALQSGNSQESVTEQDSKDSTYSLSSTLTLSKADYEKHKVYACEVTHQGLSSPVTKSFNRGEC
Take B1: the “Relative EC50 ADCC F158 (low); target cells FlpIn293-hCD163” value (shortened to “Relative EC50 ADCC F158 (low)”) in assay [1] was 0 relative (EC50 OS001/EC50 construct). Further, the “Relative EC50 ADCC V158 (high); target cells FlpIn293-hCD163” value (“Relative EC50 ADCC V158 (high)” for short) in assay [2] is 0 relative (EC50 OS001/EC50 construct).

B2: OS009 (antibody, human IgG1, kappa)
heavy: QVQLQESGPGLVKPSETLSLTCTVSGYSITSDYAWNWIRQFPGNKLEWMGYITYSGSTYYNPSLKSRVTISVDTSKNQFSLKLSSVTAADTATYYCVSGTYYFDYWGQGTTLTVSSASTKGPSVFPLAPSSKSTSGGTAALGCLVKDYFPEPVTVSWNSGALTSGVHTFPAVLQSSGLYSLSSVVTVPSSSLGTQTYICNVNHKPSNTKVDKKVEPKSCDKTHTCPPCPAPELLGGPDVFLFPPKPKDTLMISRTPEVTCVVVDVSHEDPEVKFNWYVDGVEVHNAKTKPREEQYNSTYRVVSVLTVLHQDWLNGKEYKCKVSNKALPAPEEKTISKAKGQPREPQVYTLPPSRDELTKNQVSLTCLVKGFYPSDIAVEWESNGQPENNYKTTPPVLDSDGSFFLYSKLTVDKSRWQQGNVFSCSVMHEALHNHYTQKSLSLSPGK
light: B1 light
B2: in assay [3], the “Relative EC50 ADCC (CD16 F158); target cells M2c macrophages” value (“Relative EC50 ADCC (CD16 F158)” for short) is 12 relative (normalized to OS001). Besides, the “Relative EC50 ADCC (CD16 V158); target cells M2c macrophages” value (“Relative EC50 ADCC (CD16 V158)” for short) in assay [4] was 23 relative (normalized to OS001). In assay [1], the “Relative EC50 ADCC F158 (low)” value was 7 relative (EC50 OS001/EC50 construct). The “Relative EC50 ADCC V158 (high)” value in assay [2] was 7.6 relative (EC50 OS001/EC50 construct). Moreover, the “EC50 of PBMC mediated cytotoxicity in CD163 expressing macrophages” value in assay [5] was found to be 2.8 ng/mL.

B3: OS002 (antibody, human IgG1, kappa)
heavy: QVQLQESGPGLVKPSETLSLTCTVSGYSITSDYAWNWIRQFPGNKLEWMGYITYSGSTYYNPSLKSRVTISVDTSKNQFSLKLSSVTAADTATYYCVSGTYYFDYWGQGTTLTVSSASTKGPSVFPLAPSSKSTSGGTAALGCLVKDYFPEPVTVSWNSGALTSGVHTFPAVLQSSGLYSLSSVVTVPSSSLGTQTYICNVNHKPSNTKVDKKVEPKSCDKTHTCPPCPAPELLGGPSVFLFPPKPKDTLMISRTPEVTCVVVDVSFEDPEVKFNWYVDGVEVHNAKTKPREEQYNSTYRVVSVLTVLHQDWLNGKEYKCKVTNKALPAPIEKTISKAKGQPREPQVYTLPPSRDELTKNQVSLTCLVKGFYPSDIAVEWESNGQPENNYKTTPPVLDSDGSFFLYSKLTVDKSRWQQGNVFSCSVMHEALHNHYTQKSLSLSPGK
light: B1 light
Regarding B3, the “Relative EC50 ADCC F158 (low)” value in assay [1] is 1.5 relative (EC50 OS001/EC50 construct). Also, in assay [2], the “Relative EC50 ADCC V158 (high)” value is 0.9 relative (EC50 OS001/EC50 construct).

B4: OS006 (antibody, human IgG1, kappa)
heavy: QVQLQESGPGLVKPSETLSLTCTVSGYSITSDYAWNWIRQFPGNKLEWMGYITYSGSTYYNPSLKSRVTISVDTSKNQFSLKLSSVTAADTATYYCVSGTYYFDYWGQGTTLTVSSASTKGPSVFPLAPSSKSTSGGTAALGCLVKDYFPEPVTVSWNSGALTSGVHTFPAVLQSSGLYSLSSVVTVPSSSLGTQTYICNVNHKPSNTKVDKKVEPKSCDKTHTCPPCPAPELLGGPDVFLFPPKPKDTLMISRTPEVTCVVVDVSHEDPEVKFNWYVDGVEVHNAKTKPREEQYNSTYRVVSVLTVLHQDWLNGKEYKCKVSNKALPLPEEKTISKAKGQPREPQVYTLPPSRDELTKNQVSLTCLVKGFYPSDIAVEWESNGQPENNYKTTPPVLDSDGSFFLYSKLTVDKSRWQQGNVFSCSVMHEALHNHYTQKSLSLSPGK
light: B1 light
Turning to B4, in assay [3], the “Relative EC50 ADCC (CD16 F158)” value is 71 relative (normalized to OS001). Further, the “Relative EC50 ADCC (CD16 V158)” value in assay [4] is 26 relative (normalized to OS001). For the same molecule, the “Relative EC50 ADCC F158 (low)” value in assay [1] was 2.5 relative (EC50 OS001/EC50 construct). Further, the “Relative EC50 ADCC V158 (high)” value in assay [2] was 5.9 relative (EC50 OS001/EC50 construct).

B5: OS022 (antibody, human IgG1, kappa)
heavy: not shown
light: B1 light
modifications: afucosylated glycan (GlymaxX expression)
notes: IgG1, HC D72E, afucosylated; also called IgG1 HC D72E afucosylated
On to B5, for which, in assay [6], the equilibrium dissociation constant (Kd) (usually the concentration at which binding is half-saturated) was determined as 950 pM; the koff – broadly, a measure of how fast the partners let go of each other – came out at 0.00049 s⁻¹; the kon (commonly the rate constant with which the complex forms) amounted to 520000 M⁻¹ s⁻¹.

B6: OS018 (antibody, human IgG1, kappa)
heavy: not shown
light: B1 light
notes: also called IgG1 HC D72E
Turning to B6, in assay [7], the Kd turned out to be 510 pM, the koff is 0.00033 s⁻¹ and the kon was determined as 650000 M⁻¹ s⁻¹.

B7: OS004 (antibody, human IgG1, kappa)
heavy: QVQLQESGPGLVKPSETLSLTCTVSGYSITSDYAWNWIRQFPGNKLEWMGYITYSGSTYYNPSLKSRVTISVDTSKNQFSLKLSSVTAADTATYYCVSGTYYFDYWGQGTTLTVSSASTKGPSVFPLAPSSKSTSGGTAALGCLVKDYFPEPVTVSWNSGALTSGVHTFPAVLQSSGLYSLSSVVTVPSSSLGTQTYICNVNHKPSNTKVDKKVEPKSCDKTHTCPPCPAPELLGGPSVFLFPPKPKDTLMISRTPEVTCVVVDVSHEDPEVKFNWYVDGVEVHNAKTKPREEQYNYARVVSVLTVLHQDWLNGKEYKCKVSNKALPAPIAATISKAKGQPREPQVYTLPPSRDELTKNQVSLTCLVKGFYPSDIAVEWESNGQPENNYKTTPPVLDSDGSFFLYSKLTVDKSRWQQGNVFSCSVMHEALHNHYTQKSLSLSPGK
light: B1 light
For the molecule B7, in assay [1], the “Relative EC50 ADCC F158 (low)” value is 3.5 relative (EC50 OS001/EC50 construct). Further, the “Relative EC50 ADCC V158 (high)” value in assay [2] is 1.6 relative (EC50 OS001/EC50 construct).

B8: OS010 (antibody, human IgG1, kappa)
heavy: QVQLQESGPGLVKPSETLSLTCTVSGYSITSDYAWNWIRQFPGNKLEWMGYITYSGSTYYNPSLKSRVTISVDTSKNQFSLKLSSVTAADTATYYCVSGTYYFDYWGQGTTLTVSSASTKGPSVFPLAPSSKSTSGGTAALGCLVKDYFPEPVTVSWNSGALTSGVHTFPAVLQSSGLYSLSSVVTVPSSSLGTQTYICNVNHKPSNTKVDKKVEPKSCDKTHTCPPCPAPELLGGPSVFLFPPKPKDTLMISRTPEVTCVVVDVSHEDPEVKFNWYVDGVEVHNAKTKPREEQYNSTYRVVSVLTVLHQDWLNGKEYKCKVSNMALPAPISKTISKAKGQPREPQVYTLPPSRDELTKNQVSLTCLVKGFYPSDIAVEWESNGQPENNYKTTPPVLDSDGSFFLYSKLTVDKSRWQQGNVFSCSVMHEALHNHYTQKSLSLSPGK
light: B1 light
Regarding B8, in assay [1], the “Relative EC50 ADCC F158 (low)” value was 1.2 relative (EC50 OS001/EC50 construct). Besides, the “Relative EC50 ADCC V158 (high)” value in assay [2] was 1.4 relative (EC50 OS001/EC50 construct).

B9: OS007 (antibody, human IgG1, kappa)
heavy: B4 heavy with G235A, L329A
light: B1 light
With B9, in assay [1], the “Relative EC50 ADCC F158 (low)” value was 5.6 relative (EC50 OS001/EC50 construct). For the same molecule, the “Relative EC50 ADCC V158 (high)” value in assay [2] was 4 relative (EC50 OS001/EC50 construct).

B10: OS005 (antibody, human IgG1, kappa)
heavy: B4 heavy with L234V, D238S, F242L, R291P, Y299L, L329A, E331I, P395L
light: B1 light
On to B10, for which the “Relative EC50 ADCC (CD16 F158)” value in assay [3] is 13 relative (normalized to OS001). In addition, the “Relative EC50 ADCC (CD16 V158)” value in assay [4] was 23 relative (normalized to OS001). In addition, the “Relative EC50 ADCC F158 (low)” value in assay [1] was 5.4 relative (EC50 OS001/EC50 construct). Moreover, in assay [2], the “Relative EC50 ADCC V158 (high)” value was 2.2 relative (EC50 OS001/EC50 construct).

B11: OS003 (antibody, human IgG1, kappa)
heavy: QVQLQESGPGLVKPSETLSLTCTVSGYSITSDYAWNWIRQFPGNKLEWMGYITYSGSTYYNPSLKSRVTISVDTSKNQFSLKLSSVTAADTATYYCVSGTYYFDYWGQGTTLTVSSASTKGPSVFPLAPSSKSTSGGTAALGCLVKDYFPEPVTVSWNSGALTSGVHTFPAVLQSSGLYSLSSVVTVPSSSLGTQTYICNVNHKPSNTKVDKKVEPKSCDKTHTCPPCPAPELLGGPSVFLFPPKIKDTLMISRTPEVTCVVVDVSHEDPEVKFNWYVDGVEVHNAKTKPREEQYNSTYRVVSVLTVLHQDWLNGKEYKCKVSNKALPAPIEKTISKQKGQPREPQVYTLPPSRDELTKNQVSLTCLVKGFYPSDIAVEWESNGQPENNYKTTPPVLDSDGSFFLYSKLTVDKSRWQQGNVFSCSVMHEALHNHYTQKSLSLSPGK
light: B1 light
B11: in assay [1], the “Relative EC50 ADCC F158 (low)” value is 1.3 relative (EC50 OS001/EC50 construct). For the same molecule, the “Relative EC50 ADCC V158 (high)” value in assay [2] was 1.5 relative (EC50 OS001/EC50 construct).

B12: OS016 (antibody, human IgG1, kappa)
heavy: B4 heavy with G235A, D238S, S266E, H267F, S323T, L329A
light: B1 light
Regarding B12, in assay [1], the “Relative EC50 ADCC F158 (low)” value is 4 relative (EC50 OS001/EC50 construct). The “Relative EC50 ADCC V158 (high)” value in assay [2] was 3.7 relative (EC50 OS001/EC50 construct).

B13: OS008 (antibody, human IgG1, kappa)
heavy: B4 heavy with G235A
light: B1 light
For B13, the “Relative EC50 ADCC F158 (low)” value in assay [1] was 3.2 relative (EC50 OS001/EC50 construct). In addition, the “Relative EC50 ADCC V158 (high)” value in assay [2] is 4.5 relative (EC50 OS001/EC50 construct).

B14: OS019 (antibody, human IgG1, kappa)
heavy: not shown
light: B1 light with G89Q
notes: also called IgG1 LC G89Q
As to B14, in assay [7], the dissociation constant (Kd) worked out at 410 pM, the off-rate (koff) amounted to 0.00021 s⁻¹ and the on-rate (kon) was determined as 520000 M⁻¹ s⁻¹.

B15: OS017 (antibody, human IgG1, kappa)
heavy: not shown
light: B1 light
modifications: afucosylated glycan (GlymaxX expression)
For the molecule B15, in assay [3], the “Relative EC50 ADCC (CD16 F158)” value is 111 relative (normalized to OS001). Moreover, the “Relative EC50 ADCC (CD16 V158)” value in assay [4] was 39 relative (normalized to OS001). Further, in assay [1], the “Relative EC50 ADCC F158 (low)” value is 17.6 relative (EC50 OS001/EC50 construct). Further, the “Relative EC50 ADCC V158 (high)” value in assay [2] is 11.2 relative (EC50 OS001/EC50 construct). Further, in assay [5], the “EC50 of PBMC mediated cytotoxicity in CD163 expressing macrophages” value was 2.6 ng/mL.

B16: OS001 (antibody, human IgG1, kappa)
heavy: not shown
light: B1 light
Turning to B16, in assay [3], the “Relative EC50 ADCC (CD16 F158)” value was 1 relative (normalized to OS001). In assay [4], the “Relative EC50 ADCC (CD16 V158)” value was 1 relative (normalized to OS001). Also, the “Relative EC50 ADCC F158 (low)” value in assay [1] was 1 relative (EC50 OS001/EC50 construct). Further, the “Relative EC50 ADCC V158 (high)” value in assay [2] is 1 relative (EC50 OS001/EC50 construct).

B17: OS023 (antibody, human IgG1, kappa)
heavy: not shown
light: B1 light with G89Q
modifications: afucosylated glycan (GlymaxX expression)
notes: IgG1, HC D72E and LC G89Q, afucosylated; also called IgG1 HC D72E LC G89Q afucosylated
B17: in assay [6], the equilibrium dissociation constant (Kd) was 800 pM, the koff is 0.00037 s⁻¹ and the kon turned out to be 460000 M⁻¹ s⁻¹.

B18: OS020 (antibody, human IgG1, kappa)
heavy: not shown
light: B1 light with G89Q
notes: IgG1, HC D72E and LC G89Q, wild type glycosylation; also called IgG1 HC D72E LC G89Q
B18: in assay [7], the dissociation constant (Kd) was 470 pM, the koff was 0.00022 s⁻¹ and the kon came out at 470000 M⁻¹ s⁻¹.

These data come from EP4563596A1 (OncoSpear ApS, dated 2025).
